Measurements published in the Human Domainome abundance scans (Beltran et al. 2025).
± gives the uncertainty stated by the source.

B1: Chromodomain-helicase-DNA-binding protein 4, residues 444 to 496; numbered along this chain, Q14839 (parent)
chain: EDDHHMEFCRVCKDGGELLCCDTCPSSYHIHCLNPPLPEIPNGEWLCPRCTCP

Variants of: B1
Assay: abundance fitness (aPCA) (normalised: wild type 0, dead -1); higher = more abundant; growth selection in yeast, the domain comes from the species named
Conditions: Homo sapiens
Work on D2M yielded an abundance fitness of 0.278 ± 0.077. C21R showed an abundance fitness of -0.762 ± 0.052. C21I showed an abundance fitness of -0.853 ± 0.066. With C21A the abundance fitness was -0.71 ± 0.086. For T51D, the abundance fitness was 0.152 ± 0.083. In the case of T51L, the abundance fitness is reported as -0.003 ± 0.046. With T51Y the abundance fitness was -0.171 ± 0.072. T51F showed an abundance fitness of 0.048 ± 0.077. Work on T51Q yielded an abundance fitness of -0.03 ± 0.061. Variant T51M has an abundance fitness of -0.097 ± 0.056. Variant R49E has an abundance fitness of -0.108 ± 0.079. In the case of R49V, the abundance fitness is reported as 0.006 ± 0.051. R49D gave an abundance fitness of 0.145 ± 0.055. R49Y showed an abundance fitness of -0.201 ± 0.086. L33P showed an abundance fitness of -0.703 ± 0.052. Work on L33S yielded an abundance fitness of -0.54 ± 0.044. L33I gave an abundance fitness of -0.085 ± 0.042. Variant L33M has an abundance fitness of -0.326 ± 0.067. For L33K, the abundance fitness was -0.61 ± 0.055. In the case of L33D, the abundance fitness is reported as -0.561 ± 0.092. With L33G the abundance fitness was -0.598 ± 0.087. In the case of L33R, the abundance fitness is reported as -0.787 ± 0.073. D3W gave an abundance fitness of 0.201 ± 0.045. D3M gave an abundance fitness of 0.397 ± 0.065. With D3S the abundance fitness was 0.105 ± 0.049. For D3T, the abundance fitness was 0.277 ± 0.05. With D3E the abundance fitness was -0.187 ± 0.057. Work on Y28L yielded an abundance fitness of -0.712 ± 0.058. In the case of Y28M, the abundance fitness is reported as -0.656 ± 0.08. Work on Y28K yielded an abundance fitness of -0.833 ± 0.12. Work on Y28E yielded an abundance fitness of -0.64 ± 0.082. For I40M, the abundance fitness was -0.106 ± 0.067. I40R gave an abundance fitness of 0.151 ± 0.052. For I40D, the abundance fitness was -0.152 ± 0.11. I40P gave an abundance fitness of 0.112 ± 0.052. I40E gave an abundance fitness of 0.056 ± 0.092. Variant I40L has an abundance fitness of 0.01 ± 0.041. E1Y showed an abundance fitness of -0.175 ± 0.1. In the case of E1S, the abundance fitness is reported as -0.507 ± 0.18. E1Q showed an abundance fitness of -0.486 ± 0.16. For E1N, the abundance fitness was 0.354 ± 0.27. For S26M, the abundance fitness was 0.132 ± 0.052. With S26Y the abundance fitness was -0.103 ± 0.071. In the case of S26F, the abundance fitness is reported as -0.039 ± 0.06. In the case of P36F, the abundance fitness is reported as -0.604 ± 0.068. In the case of P36L, the abundance fitness is reported as -0.458 ± 0.045. P36M showed an abundance fitness of -0.274 ± 0.052. In the case of P36G, the abundance fitness is reported as -0.244 ± 0.064. P36D showed an abundance fitness of -0.323 ± 0.1. With V11P the abundance fitness was -0.877 ± 0.07. Variant V11N has an abundance fitness of -0.104 ± 0.078. In the case of V11L, the abundance fitness is reported as -0.214 ± 0.048. With V11R the abundance fitness was 0.012 ± 0.044. V11D gave an abundance fitness of -0.103 ± 0.069. With V11Y the abundance fitness was -0.377 ± 0.073. In the case of N42G, the abundance fitness is reported as 0.038 ± 0.052. Work on N42W yielded an abundance fitness of -0.253 ± 0.058. Work on N42Q yielded an abundance fitness of 0.005 ± 0.069. N42V gave an abundance fitness of 0.032 ± 0.044. Work on H29A yielded an abundance fitness of -0.748 ± 0.056. G43S gave an abundance fitness of -0.061 ± 0.05. Work on G43C yielded an abundance fitness of -0.16 ± 0.054. G43M gave an abundance fitness of -0.195 ± 0.067. In the case of W45L, the abundance fitness is reported as -0.591 ± 0.053. In the case of W45E, the abundance fitness is reported as -0.517 ± 0.055. With W45K the abundance fitness was -0.549 ± 0.066. With W45D the abundance fitness was -0.473 ± 0.072. T23Y showed an abundance fitness of -0.084 ± 0.058. T23A gave an abundance fitness of -0.119 ± 0.074. Variant T23R has an abundance fitness of 0.038 ± 0.063. M6H gave an abundance fitness of -0.713 ± 0.043. Work on M6L yielded an abundance fitness of -0.665 ± 0.041. Work on M6C yielded an abundance fitness of -0.207 ± 0.05. H4W gave an abundance fitness of -0.126 ± 0.059. H4T gave an abundance fitness of -0.004 ± 0.041. H4Q showed an abundance fitness of -0.058 ± 0.055. In the case of H4Y, the abundance fitness is reported as 0.078 ± 0.088. In the case of H4S, the abundance fitness is reported as -0.409 ± 0.045. With H4K the abundance fitness was 0.119 ± 0.058. Work on H4N yielded an abundance fitness of 0.197 ± 0.058. Variant H4R has an abundance fitness of -0.04 ± 0.051. Work on H4V yielded an abundance fitness of -0.008 ± 0.042. Variant G15Y has an abundance fitness of -0.251 ± 0.076. With G15E the abundance fitness was 0.057 ± 0.058. For G15W, the abundance fitness was -0.317 ± 0.095. Work on G15T yielded an abundance fitness of 0.012 ± 0.057. Variant R10H has an abundance fitness of -0.137 ± 0.051. Variant R10V has an abundance fitness of -0.056 ± 0.058. R10F gave an abundance fitness of 0.059 ± 0.043. For R10M, the abundance fitness was -0.301 ± 0.074. Variant D22H has an abundance fitness of -0.02 ± 0.052. With D22R the abundance fitness was -0.058 ± 0.059. D22P showed an abundance fitness of -0.095 ± 0.045. With D22V the abundance fitness was -0.159 ± 0.046. Work on D22G yielded an abundance fitness of -0.011 ± 0.05. Variant D22L has an abundance fitness of -0.067 ± 0.04. For C50L, the abundance fitness was -0.845 ± 0.043. C50F showed an abundance fitness of -0.895 ± 0.056. With C50S the abundance fitness was -0.622 ± 0.054. Variant C50E has an abundance fitness of -0.708 ± 0.095. For C50K, the abundance fitness was -0.58 ± 0.1. C50Y gave an abundance fitness of -1.02 ± 0.13. With C50M the abundance fitness was -0.986 ± 0.052. C20L showed an abundance fitness of 0.012 ± 0.043. Variant C20I has an abundance fitness of 0.103 ± 0.042. C20H gave an abundance fitness of 0.168 ± 0.065. S27R showed an abundance fitness of 0.016 ± 0.052. S27E showed an abundance fitness of -0.472 ± 0.12. For S27C, the abundance fitness was -0.018 ± 0.075. For S27I, the abundance fitness was -0.394 ± 0.091. Variant P53S has an abundance fitness of -0.455 ± 0.2. K13V showed an abundance fitness of -0.303 ± 0.046. K13D showed an abundance fitness of -0.243 ± 0.059. For K13E, the abundance fitness was 0.214 ± 0.061. With K13M the abundance fitness was -0.2 ± 0.055. With K13G the abundance fitness was -0.01 ± 0.057. K13N gave an abundance fitness of -0.199 ± 0.045. For L19C, the abundance fitness was -0.075 ± 0.076. Variant L19N has an abundance fitness of -0.116 ± 0.079. Work on L19Q yielded an abundance fitness of -0.157 ± 0.065. With L19K the abundance fitness was -0.033 ± 0.072. For L18A, the abundance fitness was -0.682 ± 0.09. With L18I the abundance fitness was -0.357 ± 0.068. L18W gave an abundance fitness of -0.738 ± 0.054. With N34D the abundance fitness was -0.114 ± 0.09. N34C showed an abundance fitness of -0.155 ± 0.067. For N34L, the abundance fitness was -0.197 ± 0.046. In the case of N34F, the abundance fitness is reported as -0.158 ± 0.042. Variant C32R has an abundance fitness of -0.857 ± 0.057. For C32L, the abundance fitness was -0.99 ± 0.052. C32A gave an abundance fitness of -0.882 ± 0.067. With C32S the abundance fitness was -0.821 ± 0.052. C32E gave an abundance fitness of -0.66 ± 0.1. Variant I30R has an abundance fitness of -0.016 ± 0.061. I30Y showed an abundance fitness of -0.102 ± 0.057. I30N gave an abundance fitness of -0.072 ± 0.062. I30W showed an abundance fitness of -0.238 ± 0.052. I30T showed an abundance fitness of -0.044 ± 0.055. Work on E7Y yielded an abundance fitness of -0.813 ± 0.055. Work on E7P yielded an abundance fitness of -0.401 ± 0.052. With E7W the abundance fitness was -0.599 ± 0.095. Variant E7R has an abundance fitness of -0.174 ± 0.069. E7T showed an abundance fitness of -0.618 ± 0.073. Work on P38N yielded an abundance fitness of 0.065 ± 0.066. For P38R, the abundance fitness was -0.046 ± 0.049. With P38T the abundance fitness was -0.003 ± 0.05. In the case of P38W, the abundance fitness is reported as -0.172 ± 0.08. Work on P25F yielded an abundance fitness of -0.167 ± 0.077. Variant P25N has an abundance fitness of -0.303 ± 0.072. In the case of P25S, the abundance fitness is reported as -0.1 ± 0.056. Variant P25K has an abundance fitness of -0.078 ± 0.055. Work on P25Q yielded an abundance fitness of -0.209 ± 0.077. L37S showed an abundance fitness of -0.194 ± 0.042. Work on L37P yielded an abundance fitness of 0.018 ± 0.044. For L37T, the abundance fitness was -0.23 ± 0.055. Work on L46T yielded an abundance fitness of -0.02 ± 0.047. With L46V the abundance fitness was 0.106 ± 0.061. H31V gave an abundance fitness of -0.068 ± 0.059. H31C gave an abundance fitness of -0.046 ± 0.068. Variant H31P has an abundance fitness of -0.354 ± 0.059. For H31E, the abundance fitness was -0.046 ± 0.05. E44T gave an abundance fitness of -0.122 ± 0.063. With E44S the abundance fitness was -0.018 ± 0.042. E44A gave an abundance fitness of -0.07 ± 0.051. For E44Q, the abundance fitness was -0.104 ± 0.059. With E44H the abundance fitness was -0.057 ± 0.061. With E44D the abundance fitness was -0.156 ± 0.079.
